The values that follow come from patent US20240199730A1 (AstraZeneca / MedImmune, published 2024).

B1: Fab 1 (Fab, V domains shown)
VH: QMQLVESGGGVVQPGRSLRLSCAASGFTFRTYGMHWVRQAPGKGLEWVAVIWYDGSNKHYADSVKGRFTITRDNSKNTLNLQMNSLRAEDTAVYYCARAPQWELVHEAFDIWGQGTMVTVSS
VL: SYVLTQPPSVSVAPGQTARITCGGNNLGSKSVHWYQQKPGQAPVLVVYDDSDRPSWIPERFSGSNSGNTATLTISRGEAGDEADYYCQVWDSSSDHVVFGGGTKLTVLG
notes: The claims call it an IgG1 Fab; It was injected as monomerized Fab1 in the Biacore assay; also called anti-TSLP Fab
B2: cyno TSLP (ligand, cynomolgus)
chain: YDFTNCDFQKIEADYLRTISKDLITYMSGTKSTDFNNTVSCSNRPHCLTEIQSLTFNPTPRCASLAKEMFARKTKATLALWCPGYSETQINATQAMKKRRKRKVTTNKCLEQVSQLLGLWRRFIRTLLKKQ
notes: Cyno TSLP as used in solution in the KinExA assay; also called Cynomolgus TSLP

In the test “cyno TSLP” the target is B2. The experiment in a line: KinExA, solution phase; global 1:1 fit to two datasets. The text has this: (§1) The KinExA methodology has been reviewed (Darling and Brault, 2004).
(§2) The KinExA software was used to calculate the equilibrium dissociation constant (KD).
(In general: Kinetic exclusion samples the free partner from a solution-phase mixture.)

Test [1] addresses T1, N-terminally tagged biotinylated cyno TSLP (cynomolgus, UniProt A0A7N9CAT7 29-159, biotinylated (site not stated)).
T1 construct: Captured on a streptavidin C1 chip in the Biacore assay; also called recombinant mammalian cell-expressed cyno TSLP; not shown: N-terminal tag
T1 sequence: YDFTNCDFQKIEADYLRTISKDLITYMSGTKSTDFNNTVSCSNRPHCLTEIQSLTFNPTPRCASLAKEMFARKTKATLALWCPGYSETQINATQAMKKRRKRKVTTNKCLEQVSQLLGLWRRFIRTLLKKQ
In words: SPR, Biacore 8K; biotinylated TSLP on streptavidin C1 chip, Fab1 injected; 1:1 Langmuir model.

In test [2] the target is B1. In words: KinExA, cyno TSLP titrated into 1000 pM fixed Fab 1 (filled diamonds); free Fab 1 captured on hu TSLP-coated beads; the midpoint depends on the fixed Fab concentration.
Source text: as §1, §2

Test [3] has as its target B1. The experiment in a line: KinExA, cyno TSLP titrated into 40 pM fixed Fab 1 (open squares); free Fab 1 captured on hu TSLP-coated beads; the midpoint depends on the fixed Fab concentration.
Source text: as §1, §2

One may read the Kd as the free concentration of one partner at which half of the binding sites on the other are occupied at equilibrium, for simple one-to-one binding. High values mean a looser complex, low ones a tighter complex. For B1, the dissociation constant Kd in the test with cyno TSLP turned out to be 0.0136 nM; in test [1], 0.0884 nM.

Take B2: the “IC50 (read off the curve)” value was about 600 pM with Fab 1 [2] and about 40 pM in the test with Fab 1 [3].
